Results published in patent publication US11459586B2, “Methods for increasing efficiency of nuclease-mediated gene editing in stem cells” (President and Fellows of Harvard College, priority 2016, dated 2022).

Legend:
[1] = tested on: human iPSC; test: mThy1 gene targeting in hiPSC co-transfected with DNA repair or viral inhibitor genes; format: cell-based
Protocol: FIGS. 9A-G. Effects of chemical and genetic inhibitors on mThy1 gene targeting in hiPSC. FIG. 9A. Mouse Thy1 gene targeting scheme. Human iPSC were nucleofected with the mThy1 targeting vector system plasmids and analyzed by flow cytometry five days later. The percentages of mThy1^+hThy1^−, mThy1^+hThy1^+, and mThy1^−hThy1^− cells for each sample (gated on live single cells) are graphed. Lines mark the percentage values for the control sample. FIGS. 9B-9D. Human iPSC were nucleofected with: 2 μg mThy1 targeting vector; 0.5 μg Cas9 plasmid; and 1.5 μg of sgRNA plasmids. The sample was divided into multiple wells and cultured in plain media (mTeSR1+10 μM Y-27632 ROCK inhibitor) supplemented with the indicated chemical inhibitor for three days. 20 μM pifithrin α, 200 μM peptide V5 (VPMLK, SEQ ID NO:31), 200 μM peptide control (IPMIK, SEQ ID NO:32), 50 μM TEMPOL, or the indicated concentrations of SCR7 or L755507 were used. FIG. 9B, mThy1^+hThy1^− (bottom portion of each bar in each graph), mThy1^+hThy1^+ (top portion of each bar in each graph). FIG. 9C, mThy1^+hThy1^− (bottom portion of each bar in each graph), mThy1^+hThy1^+ (top portion of each bar in left and center graphs, middle portion of each bar in right graph), and mThy1^−hThy1^− (top portion of each bar in right graph). FIG. 9D, mThy1^+hThy1^− (bottom portion of each bar in each graph), mThy1^+hThy1^+ (center portion of each bar in each graph), and mThy1^−hThy1^− (top portion of each bar in each graph). FIGS. 9E-9F. Human iPSC were nucleofected with: 2 μg mThy1 targeting vector plasmid; 0.5 μg Cas9 plasmid; 1 μg of sgRNA plasmids; and 0.5 μg of plasmid expressing the indicated DNA repair gene or pUC19 control (“Cas9 only”). For FIG. 9E, cultures were treated with 50 μM zVAD and 10 μM SB203580 post transfection. mThy1^+hThy1^− (bottom portion of each bar in each graph), mThy1^+hThy1^+ (top portion of each bar in left and center graphs, middle portion of each bar in right graph), and mThy1^−hThy1^− (top portion of each bar in right graph). FIG. 9F, mThy1^+hThy1^− (bottom portion of each bar in each graph), mThy1^+hThy1^+ (top portion of each bar in left and center graphs, middle portion of each bar in right graph), and mThy1^−hThy1^− (top portion of each bar in right graph). FIG. 9G. Human iPSC were nucleofected with: 2 μg mThy1 targeting vector plasmid; 0.5 μg Cas9 plasmid; and 1.5 μg of sgRNA plasmids. The indicated viral inhibitor genes were cloned into the Cas9 expression vector following an IRES sequence. Cultures were supplemented with 50 μM zVAD post transfection. mThy1^+hThy1^− (bottom portion of each bar in each graph), mThy1^+hThy1^+ (top portion of each bar in left and center graphs, middle portion of each bar in right graph), and mThy1^−hThy1^− (top portion of each bar in right graph). […]

[2] = tested on: human iPSC; test: gene disruption of hiPSC surface markers with truncated sgRNAs and Trex2 (flow cytometry); format: cell-based; conditions: 1 μg Trex2 plasmid with Cas9 and sgRNA plasmids, five days
Description: FIG. 12. Gene disruption activity of truncated sgRNAs with and without the Trex2 endonuclease. Full length (20 bp of target complementarity) and Truncated (18-19 bp) sgRNAs were designed to target the coding region of four genes expressed on the surface of hiPSC (top) and cloned into expression plasmids under the constitutive U6 promoter. The Cas9 nuclease and Trex2 endonuclease were also cloned into separate expression plasmids under the constitutive EF1α promoter. Human iPSC were nucleofected with 0.5 μg Cas9 plasmid, 1 μg sgRNA plasmid, and 1 μg of either pUC19 control or Trex2 plasmid. Five days later, cells were stained for expression of the surface markers (Thy 1, CD147, HLA-A2, or HLA-BC) and analyzed by flow cytometry gated on live single cells (open histograms). Shaded histograms indicate staining of an untargeted hiPSC control. The percent of cells that have lost expression of the surface markers is shown.
Pluripotency of iPSC cultures was verified by flow cytometry staining using anti-human Tra-1/60 PE (TRA-1-60, BD) and anti-human Oct3/4 eFluor 660 (EM92, eBioscience) with the fixation buffer sold under the trademark BD CYTOFIX™ and permeabilization buffer sold under the trademark PHOSFLOW™ Perm/Wash buffers. […] Viable cell counts were measured with the cell analyzer sold under the trademark MUSE® Count & Viability Assay kit (EMD Millipore). […]

[3] = 0.5 μg plasmid overexpressing the DNA repair gene, 50 μM zVAD and 10 μM SB203580 post transfection (FIG. 9E)

Row | Molecule | mThy1 gene targeting efficiency ([1]; Trex2 plasmid added (FIG. 9F)) | gene disruption frequencies [2] | mThy1 gene targeting efficiency [1, 3]
1 | Trex2: endonuclease Trex2, expressed from plasmid (protein, UniProt Q9BQ50 1-236, looked up) Three prime repair …: MSEAPRAETFVFLDLEATGLPSVEPEIAELSLFAVHRSSLENPEHDESGALVLPRVLDKLTLCMCPERPFTAKASEITGLSSEGLARCRKAGFDGAVVRTLQAFLSRQAGPICLVAHNGFDYDFPLLCAELRRLGARLPRDTVCLDTLPALRGLDRAHSHGTRARGRQGYSLGSLFHRYFRAEPSAAHSAEGDVHTLLLIFLHRAAELLAWADEQARGWAHIEPMYLPPDDPSLEA | reduced mThy1 gene targeting efficiency | increased gene disruption frequencies | 
2 | MRE11a: principal HR mediator, overexpressed from plasmid (protein, UniProt P49959 2-708, looked up) Double-strand break repair …: STADALDDENTFKILVATDIHLGFMEKDAVRGNDTFVTLDEILRLAQENEVDFILLGGDLFHENKPSRKTLHTCLELLRKYCMGDRPVQFEILSDQSVNFGFSKFPWVNYQDGNLNISIPVFSIHGNHDDPTGADALCALDILSCAGFVNHFGRSMSVEKIDISPVLLQKGSTKIALYGLGSIPDERLYRMFVNKKVTMLRPKEDENSWFNLFVIHQNRSKHGSTNFIPEQFLDDFIDLVIWGHEHECKIAPTKNEQQLFYISQPGSSVVTSLSPGEAVKKHVGLLRIKGRKMNMHKIPLHTVRQFFMEDIVLANHPDIFNPDNPKVTQAIQSFCLEKIEEMLENAERERLGNSHQPEKPLVRLRVDYSGGFEPFSVLRFSQKFVDRVANPKDIIHFFRHREQKEKTGEEINFGKLITKPSEGTTLRVEDLVKQYFQTAEKNVQLSLLTERGMGEAVQEFVDKEEKDAIEELVKYQLEKTQRFLKERHIDALEDKIDEEVRRFRETRQKNTNEEDDEVREAMTRARALRSQSEESASAFSADDLMSIDLAEQMANDSDDSISAATNKGRGRGRGRRGGRGQNSASRGGSQRGRADTGLETSTRSRNSKTAVSASRNMSIIDAFKSTRQQPSRNVTTKNYSEVIEVDESDVEEDIFPTTSKTDQRWSSTSSSKIMSQSQVSKGVDFESSEDDDDDPFMNTSSLRRNRR |  |  | did not improve mThy1 gene targeting efficiency
3 | Rad51: DNA repair gene overexpressed from plasmid (protein, UniProt Q06609 2-339, looked up) DNA repair protein RAD51 …: AMQMQLEANADTSVEEESFGPQPISRLEQCGINANDVKKLEEAGFHTVEAVAYAPKKELINIKGISEAKADKILAEAAKLVPMGFTTATEFHQRRSEIIQITTGSKELDKLLQGGIETGSITEMFGEFRTGKTQICHTLAVTCQLPIDRGGGEGKAMYIDTEGTFRPERLLAVAERYGLSGSDVLDNVAYARAFNTDHQTQLLYQASAMMVESRYALLIVDSATALYRTDYSGRGELSARQMHLARFLRMLLRLADEFGVAVVITNQVVAQVDGAAMFAADPKKPIGGNIIAHASTTRLYLRKGRGETRICKIYDSPCLPEAEAMFAINADGVGDAKD |  |  | reduced gene targeting efficiency
4 | CtIP: principal HR mediator, overexpressed from plasmid (protein, UniProt Q99708 1-897, looked up) DNA endonuclease RBBP8: MNISGSSCGSPNSADTSSDFKDLWTKLKECHDREVQGLQVKVTKLKQERILDAQRLEEFFTKNQQLREQQKVLHETIKVLEDRLRAGLCDRCAVTEEHMRKKQQEFENIRQQNLKLITELMNERNTLQEENKKLSEQLQQKIENDQQHQAAELECEEDVIPDSPITAFSFSGVNRLRRKENPHVRYIEQTHTKLEHSVCANEMRKVSKSSTHPQHNPNENEILVADTYDQSQSPMAKAHGTSSYTPDKSSFNLATVVAETLGLGVQEESETQGPMSPLGDELYHCLEGNHKKQPFEESTRNTEDSLRFSDSTSKTPPQEELPTRVSSPVFGATSSIKSGLDLNTSLSPSLLQPGKKKHLKTLPFSNTCISRLEKTRSKSEDSALFTHHSLGSEVNKIIIQSSNKQILINKNISESLGEQNRTEYGKDSNTDKHLEPLKSLGGRTSKRKKTEEESEHEVSCPQASFDKENAFPFPMDNQFSMNGDCVMDKPLDLSDRFSAIQRQEKSQGSETSKNKFRQVTLYEALKTIPKGFSSSRKASDGNCTLPKDSPGEPCSQECIILQPLNKCSPDNKPSLQIKEENAVFKIPLRPRESLETENVLDDIKSAGSHEPIKIQTRSDHGGCELASVLQLNPCRTGKIKSLQNNQDVSFENIQWSIDPGADLSQYKMDVTVIDTKDGSQSKLGGETVDMDCTLVSETVLLKMKKQEQKGEKSSNEERKMNDSLEDMFDRTTHEEYESCLADSFSQAADEEEELSTATKKLHTHGDKQDKVKQKAFVEPYFKGDERETSLQNFPHIEVVRKKEERRKLLGHTCKECEIYYADMPAEEREKKLASCSRHRFRYIPPNTPENFWEVGFPSTQTCMERGYIKEDLDPCPRPKRRQPYNAIFSPKGKEQKT |  |  | did not improve mThy1 gene targeting efficiency
